Test results: patent US20230227584A1 (published 2023)
Where a chain is given by its changes, count along the chain named.

T1: human OX40 on the cell surface (activated human T cells; HeLa_hOx40_NFkB_Luc1 reporter cells) (human, UniProt P43489 29-277)
T1 sequence: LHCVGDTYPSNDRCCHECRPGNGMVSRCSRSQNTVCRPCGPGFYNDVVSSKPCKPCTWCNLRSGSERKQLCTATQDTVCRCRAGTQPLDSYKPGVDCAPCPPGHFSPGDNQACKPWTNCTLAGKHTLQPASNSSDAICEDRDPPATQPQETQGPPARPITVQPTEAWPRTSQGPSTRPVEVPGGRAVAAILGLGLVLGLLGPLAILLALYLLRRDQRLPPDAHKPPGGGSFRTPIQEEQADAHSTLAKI

B1: P1AD3690 untargeted tetravalent OX40 (49B4) antigen binding molecule (4+0) (antibody, V domains shown)
VH: QVQLVQSGAEVKKPGSSVKVSCKASGGTFSSYAISWVRQAPGQGLEWMGGIIPIFGTANYAQKFQGRVTITADKSTSTAYMELSSLRSEDTAVYYCAREYYRGPYDYWGQGTTVTVSS
VL: DIQMTQSPSTLSASVGDRVTITCRASQSISSWLAWYQQKPGKAPKLLIYDASSLESGVPSRFSGSGSGTEFTLTISSLQPDDFATYYCQQYSSQPYTFGQGTKVEIK
B2: P1AE8875 OX40(MOXR0916) x FAP(1G1a) 3+1 (bispecific antibody, human IgG1, kappa, L234A L235A)
heavy 1: not shown
heavy 2: EVQLVQSGAEVKKPGASVKVSCKASGYTFTDSYMSWVRQAPGQGLEWIGDMYPDNGDSSYNQKFRERVTITRDTSTSTAYLELSSLRSEDTAVYYCVLAPRWYFSVWGQGTLVTVSSASTKGPSVFPLAPSSKSTSGGTAALGCLVEDYFPEPVTVSWNSGALTSGVHTFPAVLQSSGLYSLSSVVTVPSSSLGTQTYICNVNHKPSNTKVDEKVEPKSCGGGGSGGSGGEVQLVQSGAEVKKPGASVKVSCKASGYTFTDSYMSWVRQAPGQGLEWIGDMYPDNGDSSYNQKFRERVTITRDTSTSTAYLELSSLRSEDTAVYYCVLAPRWYFSVWGQGTLVTVSSASTKGPSVFPLAPSSKSTSGGTAALGCLVEDYFPEPVTVSWNSGALTSGVHTFPAVLQSSGLYSLSSVVTVPSSSLGTQTYICNVNHKPSNTKVDEKVEPKSCDKTHTCPPCPAPEAAGGPSVFLFPPKPKDTLMISRTPEVTCVVVDVSHEDPEVKFNWYVDGVEVHNAKTKPREEQYNSTYRVVSVLTVLHQDWLNGKEYKCKVSNKALGAPIEKTISKAKGQPREPQVCTLPPSRDELTKNQVSLSCAVKGFYPSDIAVEWESNGQPENNYKTTPPVLDSDGSFFLVSKLTVDKSRWQQGNVFSCSVMHEALHNHYTQKSLSLSP
light 1: not shown
light 2: EIVLTQSPATLSLSPGERATLSCRASESVDNYGLSFINWFQQKPGQAPRLLIYGTSNRGSGIPARFSGSGSGTDFTLTISSLEPEDFAVYFCQQSNEVPYTFGGGTKVEIKSSASTKGPSVFPLAPSSKSTSGGTAALGCLVKDYFPEPVTVSWNSGALTSGVHTFPAVLQSSGLYSLSSVVTVPSSSLGTQTYICNVNHKPSNTKVDKKVEPKSC
notes: (2+1)', but its chains are those of a MOXR0916 3+1 molecule ending in EPKSC; Human IgG1 Fc, knob-into-hole, PGLALA; also called MOX0916 3+1; MOXR0916 3+1
B3: P1AE8874 OX40 (CLC563) x FAP (1G1a) (3+1) C-terminal crossfab fusion (bispecific antibody, human IgG1, kappa, L234A L235A)
heavy 1: not shown
heavy 2: not shown
light 1: not shown
light 2: B2 light 2
notes: 3+1 format; Human IgG1 Fc, knob-into-hole, PGLALA; VL-CH1 chain ends in EPKSC; also called CLC-563 3+1
B4: P1AE8871 OX40 (CLC563) x FAP (1G1a) (2+1) C-terminal crossfab fusion (bispecific antibody, human IgG1, kappa, L234A L235A)
heavy 1: not shown
heavy 2: not shown
light 1: not shown
light 2: B2 light 2
notes: 2+1 format; Human IgG1 Fc, knob-into-hole, PGLALA; VL-CH1 chain ends in EPKSC; also called CLC-563 2+1
B5: P1AE8872 OX40 (MOXR0916) x FAP (1G1a) (2+1) C-terminal crossfab fusion (bispecific antibody, human IgG1, kappa, L234A L235A)
heavy 1: not shown
heavy 2: EVQLVQSGAEVKKPGASVKVSCKASGYTFTDSYMSWVRQAPGQGLEWIGDMYPDNGDSSYNQKFRERVTITRDTSTSTAYLELSSLRSEDTAVYYCVLAPRWYFSVWGQGTLVTVSSASTKGPSVFPLAPSSKSTSGGTAALGCLVEDYFPEPVTVSWNSGALTSGVHTFPAVLQSSGLYSLSSVVTVPSSSLGTQTYICNVNHKPSNTKVDEKVEPKSCDKTHTCPPCPAPEAAGGPSVFLFPPKPKDTLMISRTPEVTCVVVDVSHEDPEVKFNWYVDGVEVHNAKTKPREEQYNSTYRVVSVLTVLHQDWLNGKEYKCKVSNKALGAPIEKTISKAKGQPREPQVCTLPPSRDELTKNQVSLSCAVKGFYPSDIAVEWESNGQPENNYKTTPPVLDSDGSFFLVSKLTVDKSRWQQGNVFSCSVMHEALHNHYTQKSLSLSP
light 1: not shown
light 2: B2 light 2
notes: 2+1 format; Human IgG1 Fc, knob-into-hole, PGLALA; VL-CH1 chain ends in EPKSC; also called MOX0916 2+1; MOXR0916 2+1
B6: P1AE1116 GITR(852.2) x FAP (4B9) (2+1) C-terminal crossfab fusion (bispecific antibody, human IgG1, kappa, L234A L235A)
heavy 1: not shown
heavy 2: EVQLVESGGGLVQPGGSLRLSCAASGFTFSSYTMKWVRQTPGKGLEWVSVISADGGTTDHAASVKGRFTVSRDNSKNMLYLQMNSLRAEDTAIYYCAKDRANDWITGASFDYWGQGALVTVSSASTKGPSVFPLAPSSKSTSGGTAALGCLVEDYFPEPVTVSWNSGALTSGVHTFPAVLQSSGLYSLSSVVTVPSSSLGTQTYICNVNHKPSNTKVDEKVEPKSCDKTHTCPPCPAPEAAGGPSVFLFPPKPKDTLMISRTPEVTCVVVDVSHEDPEVKFNWYVDGVEVHNAKTKPREEQYNSTYRVVSVLTVLHQDWLNGKEYKCKVSNKALGAPIEKTISKAKGQPREPQVCTLPPSRDELTKNQVSLSCAVKGFYPSDIAVEWESNGQPENNYKTTPPVLDSDGSFFLVSKLTVDKSRWQQGNVFSCSVMHEALHNHYTQKSLSLSP
light 1: DIQMTQSPSSLSASVGDRVTITCRASQSINSYLNWYQQKPGNAPKLLIYAASSLQSGVPSRFSGSGSGTEFTLTISSLQPEDLATYYCQQARSFPLTFGGGTKVEIKRTVAAPSVFIFPPSDRKLKSGTASVVCLLNNFYPREAKVQWKVDNALQSGNSQESVTEQDSKDSTYSLSSTLTLSKADYEKHKVYACEVTHQGLSSPVTKSFNRGEC
light 2: EIVLTQSPGTLSLSPGERATLSCRASQSVTSSYLAWYQQKPGQAPRLLINVGSRRATGIPDRFSGSGSGTDFTLTISRLEPEDFAVYYCQQGIMLPPTFGQGTKVEIKSSASTKGPSVFPLAPSSKSTSGGTAALGCLVKDYFPEPVTVSWNSGALTSGVHTFPAVLQSSGLYSLSSVVTVPSSSLGTQTYICNVNHKPSNTKVDKKVEPKSC
notes: 2+1 format; Human IgG1 Fc, knob-into-hole, PGLALA; VL-CH1 chain ends in EPKSC
B7: P1AG1036 GITR(852.2) x FAP (4B9_EPKSCS) (2+1) C-terminal crossfab fusion (bispecific antibody, human IgG1, kappa, L234A L235A)
heavy 1: not shown
heavy 2: B6 heavy 2
light 1: B6 light 1
light 2: EIVLTQSPGTLSLSPGERATLSCRASQSVTSSYLAWYQQKPGQAPRLLINVGSRRATGIPDRFSGSGSGTDFTLTISRLEPEDFAVYYCQQGIMLPPTFGQGTKVEIKSSASTKGPSVFPLAPSSKSTSGGTAALGCLVKDYFPEPVTVSWNSGALTSGVHTFPAVLQSSGLYSLSSVVTVPSSSLGTQTYICNVNHKPSNTKVDKKVEPKSCS
notes: 2+1 format; Human IgG1 Fc, knob-into-hole, PGLALA; VL-CH1 chain ends in EPKSCS
B8: P1AG1039 GITR(852.2) x FAP (4B9_EPKSCG) (2+1) C-terminal crossfab fusion (bispecific antibody, human IgG1, kappa, L234A L235A)
heavy 1: not shown
heavy 2: B6 heavy 2
light 1: B6 light 1
light 2: B7 light 2 with S214G
notes: 2+1 format; Human IgG1 Fc, knob-into-hole, PGLALA; VL-CH1 chain ends in EPKSCG

These binders were tested against T1, human OX40 on the cell surface … (assay: cell-based or functional assay).

Binder	EC50 of NFκB activation (luciferase), HeLa_hOx40_NFkB_Luc1, w/ hu FAP [nM]	EC50 of NFκB activation (luciferase), HeLa_hOx40_NFkB_Luc1, w/o [nM]
B1	0.18	0.23
B2	0.31	3.94
B3	0.24	0.79
B4	0.21	
B5	0.19	

Biological target: T1, human OX40 on the cell surface …
Test: cell-based or functional assay
Remark: another data set of the same source

Binder	CD25 upregulation on CD4+ T cells, AUC compared to reference compound [%]	EC50 of CD25 upregulation on CD4+ T cells, suboptimal TCR stimulation of human PBMC with NIH/3T3-huFAP cells [nM]
B1	13	
B2	100	0.02
B3	100	0.04
B4	99	0.06
B5	106	0.01

Each binder was assayed against T2, human fibroblast activation protein (huFAP) on NIH/3T3-huFAP clone 19 cells (human, UniProt Q12884 1-760) (assay: flow cytometry, NIH/3T3-huFAP clone 19 cells).
T2 construct: Mouse NIH/3T3 fibroblasts transfected with vector pETR4921 to express huFAP; also called cell surface FAP
Description: In another experiment, a mixture of 2 × 10⁵ NIH/3T3-huFAP clone 19 cells and HeLa cells in FACS buffer were added to each well of a round-bottom 96-well plates (TPP, Cat. No. 92097) and the binding assay was performed. Cells were first stained 20 min with LIVE/DEAD™ Fixable Aqua Dead Cell Stain (Molecular probes, Cat.No. L34957) in DPBS, followed after one washing step with 200 µL 4° C. […] Afterwards the cells were washed once with 200 µL FACS buffer at 4° C. and resuspended by a short vortex. Cells were further stained with 50 µL/well of 4° C. cold secondary antibody solution containing Phycoerythrin (PE)-conjugated AffiniPure anti-human IgG Fcy-fragment-specific goat IgG F(ab′)2 fragment (Jackson ImmunoResearch, Cat. No. 109-116-098) and incubated for 30 minutes at 4° C. in the dark. Samples were finally resuspended in 100 µL/well FACS-buffer and acquired the same day using with BD Fortessa running FACS Diva software.

Binder	EC50 [nM]
B2	2.7
B3	2.52
B4	2.51
B5	1.78

What follows are binders tested against T1, human OX40 on the cell surface … (assay: flow cytometry, activated human PBMC gated on CD4+ T cells).

Binder	EC50 [nM]
B2	0.69
B3	3.62
B4	3.19
B5	0.9

What follows are binders tested against T3, FcRn (biotinylated, coupled to streptavidin-sepharose) (assay: FcRn affinity chromatography; retention compared to protein standards with known affinities).
T3 construct: also called neonatal Fc receptor
Description: For coupling, the prepared receptor was added to streptavidin-sepharose (GE Healthcare). The resulting FcRn-sepharose matrix was packed in a column housing. The column was equilibrated with 20 mM 2-(N-morpholine)-ethanesulfonic acid (MES) and 140 mM NaCl, pH 5.5 (eluent A) at a 0.5 ml/min flow rate. 30 µg of antibody samples were diluted at a volume ratio of 1: 1 with eluent A and applied to the FcRn column. The column was washed with 5 column volumes of eluent A followed by elution with a linear gradient from 20 to 100% 20 mM Tris/HCl and 140 mM NaCl, pH 8.8 (eluent B) in 35 column volumes. The analysis was performed with a column oven at 25° C. The elution profile was monitored by continuous measurement of the absorbance at 280 nm. Retention times were compared to protein standards with known affinities.

T3 sequence (P55899 24-297, chain 1 of 2): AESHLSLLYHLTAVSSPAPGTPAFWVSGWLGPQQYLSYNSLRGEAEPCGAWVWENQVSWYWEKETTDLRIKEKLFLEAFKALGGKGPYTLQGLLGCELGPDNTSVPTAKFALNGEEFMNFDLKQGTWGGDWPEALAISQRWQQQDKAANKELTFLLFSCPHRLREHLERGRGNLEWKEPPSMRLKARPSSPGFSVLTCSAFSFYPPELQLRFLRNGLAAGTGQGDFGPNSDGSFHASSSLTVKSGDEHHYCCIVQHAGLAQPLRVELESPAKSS
T3 sequence (P61769 21-119, chain 2 of 2, further chain): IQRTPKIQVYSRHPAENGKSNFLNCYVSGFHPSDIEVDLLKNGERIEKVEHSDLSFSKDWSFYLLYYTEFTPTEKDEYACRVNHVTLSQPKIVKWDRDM

Binder	FcRn affinity
B2	-0.22
B3	-0.14
B5	0.15

The binders below were run against human FAP (soluble second analyte, SPR) (human, UniProt Q12884 26-760) (assay: SPR (Biacore T200), biotinylated human GITR Fc(kih) on SA chip, bispecific at 200 nM, then human FAP at 500 nM).
Description: The capacity of binding simultaneously human GITR Fc(kih) and human FAP can be assessed by surface plasmon resonance (SPR). All SPR experiments are performed on a Biacore T200 at 25° C. with HBS-EP as running buffer (0.01 M HEPES pH 7.4, 0.15 M NaCl, 3 mM EDTA, 0.005% Surfactant P20, Biacore, Freiburg/Germany). […] Immobilization levels up to 1000 resonance units (RU) are used. The bispecific antibodies targeting GITR and FAP are passed at a concentration range of 200 nM with a flow of 30 µL/minute through the flow cells over 90 seconds and dissociation was set to zero sec. Human FAP is injected as second analyte with a flow of 30 µL/minute through the flow cells over 90 seconds at a concentration of 500 nM. The dissociation is monitored for 120 sec. Bulk refractive index differences are corrected for by subtracting the response obtained in a reference flow cell, where no protein is immobilized.

Binder	binding result
B6	binds
B7	binds
B8	binds
